Measured values: US8026218 (UNIVERSITY OF ARIZONA, dated 2011)
Bridge positions count the residues as written; N and C are the ends. Square brackets hold non-standard residues; d marks the D form. Ends that are not written are not given here. * marks the point of attachment. NHBn(CF3)2 = C-terminal amide NH-Bn(CF3)2, a benzyl group carrying two CF3; Glc = O-glucosyl on Ser side chain (Ser(OGlu)/Ser(OGlc)); NH(3,5-(CF3)2-benzyl) = FC(F)(F)c1cc(CN*)cc(C(F)(F)F)c1; NMeBn(3,5-(CF3)2) = CN(Cc1cc(C(F)(F)F)cc(C(F)(F)F)c1)*; OBzl(3,5-(CF3)2) = FC(F)(F)c1cc(CO*)cc(C(F)(F)F)c1; NH‑Bn(CF3)2 = C-terminal Bn(CF3)2 amide; Nle = CCCC[C@H](N)C(=O)O; OBn = c1ccc(CO*)cc1

Tests used:
[1] = target: T1, human δ opioid receptor (human, UniProt P41143 1-372); assay: cell-based or functional assay
T1 sequence (P41143 whole entry, stated change not applied): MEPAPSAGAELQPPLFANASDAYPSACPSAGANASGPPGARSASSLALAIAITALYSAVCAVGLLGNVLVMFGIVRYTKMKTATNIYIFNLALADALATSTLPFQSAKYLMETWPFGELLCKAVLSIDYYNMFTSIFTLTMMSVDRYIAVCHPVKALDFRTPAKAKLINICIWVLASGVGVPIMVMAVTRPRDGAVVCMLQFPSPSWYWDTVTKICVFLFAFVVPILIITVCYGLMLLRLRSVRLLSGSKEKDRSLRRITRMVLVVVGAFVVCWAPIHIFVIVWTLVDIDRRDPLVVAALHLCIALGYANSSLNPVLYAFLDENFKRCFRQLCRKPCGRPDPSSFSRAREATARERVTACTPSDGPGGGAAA

[2] = target: T2, rat µ opioid receptor (rat, UniProt P33535 1-398); assay: cell-based or functional assay
T2 sequence (P33535 whole entry): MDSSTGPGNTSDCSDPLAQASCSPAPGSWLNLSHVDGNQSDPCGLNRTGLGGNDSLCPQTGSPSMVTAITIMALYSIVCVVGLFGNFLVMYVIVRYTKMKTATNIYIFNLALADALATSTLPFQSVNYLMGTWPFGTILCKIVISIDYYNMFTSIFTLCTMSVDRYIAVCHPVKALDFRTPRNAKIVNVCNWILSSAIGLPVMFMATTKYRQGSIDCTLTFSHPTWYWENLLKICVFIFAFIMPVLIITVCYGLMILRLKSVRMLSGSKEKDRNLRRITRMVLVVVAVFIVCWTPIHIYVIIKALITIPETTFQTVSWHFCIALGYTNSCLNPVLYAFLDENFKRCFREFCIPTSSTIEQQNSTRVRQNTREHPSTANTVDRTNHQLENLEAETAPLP

[3] = target: µ opioid receptor of the guinea pig isolated ileum (guinea pig, UniProt P97266 1-98); assay: cell-based or functional assay
Sequence of µ opioid receptor of the guinea pig isolated ileum (P97266 whole entry): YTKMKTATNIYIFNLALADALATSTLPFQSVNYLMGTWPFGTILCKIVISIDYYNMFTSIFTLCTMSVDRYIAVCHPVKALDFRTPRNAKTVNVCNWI

[4] = target: guinea pig NK1 receptor (guinea pig, UniProt P30547 1-407); assay: cell-based or functional assay
Sequence of guinea pig NK1 receptor (P30547 whole entry): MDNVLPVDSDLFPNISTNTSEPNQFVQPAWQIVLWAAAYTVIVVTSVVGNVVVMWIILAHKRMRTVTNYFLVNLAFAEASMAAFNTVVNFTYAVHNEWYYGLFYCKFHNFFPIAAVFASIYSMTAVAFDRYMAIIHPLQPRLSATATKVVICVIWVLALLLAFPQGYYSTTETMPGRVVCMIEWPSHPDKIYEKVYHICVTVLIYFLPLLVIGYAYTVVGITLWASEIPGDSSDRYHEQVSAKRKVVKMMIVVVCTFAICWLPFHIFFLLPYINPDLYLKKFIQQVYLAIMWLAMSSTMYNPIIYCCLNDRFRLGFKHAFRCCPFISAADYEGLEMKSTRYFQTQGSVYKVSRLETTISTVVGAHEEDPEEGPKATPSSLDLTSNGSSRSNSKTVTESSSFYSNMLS

[5] = target: T2, rat µ opioid receptor; assay: radioligand competition vs [3H]DAMGO, membranes of rMOR cells
[6] = target: T3, rat NK1 receptor (rat, UniProt P14600 1-407); assay: radioligand competition vs [3H]substance P, membranes of rNK1 CHO cells
T3 construct: whole, on cells; Used as membrane preparations of transfected CHO cells; also called rNK1; rat neurokinin-1 receptor
T3 sequence (P14600 whole entry): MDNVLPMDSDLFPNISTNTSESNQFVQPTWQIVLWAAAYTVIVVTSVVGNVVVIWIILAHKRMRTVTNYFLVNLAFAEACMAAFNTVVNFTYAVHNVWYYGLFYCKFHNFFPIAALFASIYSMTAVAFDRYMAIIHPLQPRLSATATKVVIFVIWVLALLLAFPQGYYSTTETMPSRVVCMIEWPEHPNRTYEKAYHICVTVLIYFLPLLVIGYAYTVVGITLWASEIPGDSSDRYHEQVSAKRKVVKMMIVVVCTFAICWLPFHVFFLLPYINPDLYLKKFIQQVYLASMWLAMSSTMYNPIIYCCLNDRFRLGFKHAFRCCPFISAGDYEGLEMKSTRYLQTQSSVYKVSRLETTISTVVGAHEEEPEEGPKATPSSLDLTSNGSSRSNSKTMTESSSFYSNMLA

[7] = target: T1, human δ opioid receptor; assay: radioligand competition vs [3H]DPDPE, membranes of hDOR cells
[8] = target: T4, human NK1 receptor (human, UniProt P25103 1-407); assay: radioligand competition vs [3H]substance P, membranes of hNK1 CHO cells
T4 construct: whole, on cells; Used as membrane preparations of transfected CHO cells; also called hNK1; human neurokinin-1 receptor
T4 sequence (P25103 whole entry): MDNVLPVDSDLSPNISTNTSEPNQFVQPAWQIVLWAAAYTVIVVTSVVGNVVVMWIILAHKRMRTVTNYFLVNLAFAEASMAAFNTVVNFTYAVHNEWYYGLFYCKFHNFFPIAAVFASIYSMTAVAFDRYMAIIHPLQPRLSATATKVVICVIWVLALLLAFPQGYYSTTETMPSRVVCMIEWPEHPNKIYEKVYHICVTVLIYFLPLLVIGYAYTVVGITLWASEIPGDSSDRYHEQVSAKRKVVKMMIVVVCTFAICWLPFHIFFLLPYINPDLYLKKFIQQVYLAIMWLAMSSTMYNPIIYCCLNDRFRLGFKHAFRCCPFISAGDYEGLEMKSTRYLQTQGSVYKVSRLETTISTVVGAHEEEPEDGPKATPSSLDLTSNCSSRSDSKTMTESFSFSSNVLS

Binder | GTP binding hDOR EC50 [1] [nM] | GTP binding hDOR Emax [1] [%] | GTP binding rMOR EC50 [2] [nM] | GTP binding rMOR Emax [2] [%] | GPI/LMMP opioid(mu) agonist IC50 [3] | GPI/LMMP SP antagonist Ke [4] [nM] | Ki [5] [nM] | Ki [6] [nM] | Ki [7] [nM] | Ki [8] [nM]
Y[dA]GF[Nle]PS(Glc)W-{NH‑Bn(CF3)2} [TyrDAlaGlyPheNleProSer(OGlu)TrpNHBn(CF3)2 (TY041)] | 7.9 | 62 | 18 | 42 | 517 nM | 1.8 | 8 | 13.6 |  | 
Y[dC]GF[Nle]P[dC]W-{NH(3,5-(CF3)2-benzyl)} (disulfide 2-7) [Tyr[DCysGlyPheNleProDCys]TrpNHBn(CF3)2 (TY038)] |  |  |  |  | 3 % at 1 uM | 12 |  |  |  | 
Y[dA]GFMPLW-OBn [TyrDAlaGlyPheMetProLeuTrpOBn (TY029)] | 3.4 | 98 |  | 133 | 22.2 nM | 5.1 |  | 20.3 |  | 
Y[dA]GFMPLW-{OBzl(3,5-(CF3)2)} [TyrDAlaGlyPheMetProLeuTrpOBn(CF3)2 (TY005)] | 2.9 | 47.6 |  | 45.6 | 359 nM | 24.7 |  | 0.29 | 2.8 | 
Y[dA]GF[dF]PLW-{OBzl(3,5-(CF3)2)} [TyrDAlaGlyPheDPheProLeuTrpOBn(CF3)2 (TY007)] | 16.7 | 22.9 | 345 | 23.6 | 9.2% | 69.6 | 410 | 3 | 110 | 1.3
Y[dA]GFFPLW-{OBzl(3,5-(CF3)2)} [TyrDAlaGlyPhePheProLeuTrpOBn(CF3)2 (TY003)] | 20.8 | 39 | 58.7 | 36.3 | 6.6 % @ 1 uM | 14.4 | 28.3 | 0.88 | 14.6 | 0.021
Y[dC]GFMPLW-{OBzl(3,5-(CF3)2)} [TyrDCysGlyPheMetProLeuTrpOBn(CF3)2 (TY031)] |  |  |  |  |  |  | 172 | 7.06 | 55.4 | 0.847
Y[dA]GFFPLW-OBn [TyrDAlaGlyPhePheProLeuTrpOBn (TY014)] | 25.6 | 137 | 76 | 72.3 |  |  | 36.3 | 124 | 11.5 | 0.265
Y[dC]GFCPLW-{NH(3,5-(CF3)2-benzyl)} (disulfide 2-5, also called [D-Cys2, Cys5]) [Tyr[DCysGlyPheCys]ProLeuTrpNHBn(CF3)2 (TY039)] | 50.9 | 37 | 118 | 20 | 10.1 % at 1 uM | 434 |  | 556 | 10.7 | 
Y[dA]GFSPLW-{NH(3,5-(CF3)2-benzyl)} (not fully specified (residue 5); printed as TyrDAlaGlyPheSer(OGlu)ProLeuTrpNHBn(CF3)2) [TyrDAlaGlyPheSer(OGlu)ProLeuTrpNHBn(CF3)2 (TY042)] | 51.9 | 47 | 176 | 28 | 1890 nM | 2.83 | 256 | 1.45 | 58.5 | 0.00027
Y[dA]GFFPLW-{NHBn(CF3)2} [TyrDAlaGlyPhePheProLeuTrpNHBn(CF3)2 (TY015)] | 81.4 | 142 | 176 | 64.4 |  |  | 53.7 | 0.98 | 12.5 | 0.192
Y[dA]GFGPLW-{OBzl(3,5-(CF3)2)} [TyrDAlaGlyPheGlyProLeuTrpOBn(CF3)2 (TY006)] | 50.2 | 33.6 | 41.7 | 35.9 | 384 nM | 5.4 | 27 | 1 | 36.1 | 0.016
Y[dA]GFFPLW-{NMeBn(3,5-(CF3)2)} [TyrDAlaGlyPhePheProLeuTrpNMeBn(CF3)2 (TY017)] | 122 | 125 | 349 | 62.4 |  |  | 74.7 | 0.57 | 26.5 | 0.213
Y[dA]GFLPLW-{OBzl(3,5-(CF3)2)} [TyrDAlaGlyPheLeuProLeuTrpOBn(CF3)2 (TY004)] | 9.6 | 42.5 |  | 44.5 | 341 nM | 19.4 | 23.3 | 0.8 | 5 | 0.016
